Laboratory results published in patent US20220251595A1, “ENGINEERED ATRLP23 PATTERN RECOGNITION RECEPTORS AND METHODS OF USE” (priority 2019, published 2022).

Test system: corn protoplasts
Experiment: Calcium burst in transiently transfected corn protoplasts, R-GECO1.2 fluorescence reporter
Format: cell-based, Zea mays
Conditions: Example 3, FIG. 4; 1 μM PpNLP20; 40 minutes; 384-well
Excerpt: Following ligand (also known as elicitor) binding, PRRs are activated and induce a transient increase of cytosolic Ca^2+ concentration as part of a PTI response. […] In a high-throughput method, the kinetics of PRR-dependent transient variation of cytosolic Ca^2+ concentration can be measured with a fluorimeter or luminometer and in microplate formats of 96 or 384 wells.
Fluorescence was monitored using a fluorimeter equipped with a 100 Hz xenon flash lamp with excitation at 556 nm and emission measured at 585 nm for 100 ms, every 22.6 seconds for 42 minutes.
All of the AtRLP23 constructs have an operably linked 2×35S+Ω promoter construct (SEQ ID NO: 72) and an operably linked rbcS terminator (SEQ ID NO: 73)
Fluorescence was monitored using a fluorimeter equipped with a 100 Hz xenon flash lamp with excitation at 556 nm and emission measured at 585 nm for 30 ms, every 20.2 seconds for 40 minutes. For each fluorescence measurement, the transient change in R-GECO1.2 fluorescence (ΔF) are calculated from background corrected intensity values as (F-Fo), where F represents the average fluorescence intensity of the a batch of protoplasts treated with elicitor, and Fo represents the average fluorescence intensity of the same batch of protoplasts treated with a control solution that lacks the elicitor but is otherwise identical or essentially identical in composition to the solution comprising the elicitor.

Row | Molecule | responsiveness to PpNLP20 treatment compared to AtRLP23-3×FLAG (total transient increase of fluorescence)
1 | AtRLP23+TM-AtEFR-3×FLAG: AtRLP23 apoplastic, eJM and TM domains, AtEFR cytoplasmic domain, 3×FLAG; SEQ ID NO: 33, 34 (protein, Fusion protein) MSKALLHLHFLSLFLLCCVCHSSIFTLNFHFTGIVACRPHQIQAFTKFTNEFDTRGCNNSDTFNGVWCDNSTGAVAVLQLRKCLSGTLKSNSSLFGFHQLRYVDLQNNNLTSSSLPSGFGNLKRLEGLFLSSNGFLGQVPSSFSNLTMLAQLDLSYNKLTGSFPLVRGLRKLIVLDLSYNHFSGTLNPNSSLFELHQLRYLNLAFNNFSSSLPSKFGNLHRLENLILSSNGFSGQVPSTISNLTRLTKLYLDQNKLTSSFPLVQNLTNLYELDLSYNKFFGVIPSSLLTLPFLAHLALRENNLAGSVEVSNSSTSSRLEIMYLGSNHFEGQILEPISKLINLKHLDLSFLNTSYPIDLKLFSSLKSLRSLDLSGNSISSASLSSDSYIPLTLEMLTLRHCDINEFPNILKTLKELVYIDISNNRMKGKIPEWLWSLPLLQSVTLGNNYFTGFQGSAEILVNSSVLLLYLDSNNFEGALPDLPLSIKGFGVASNSFTSEIPLSICNRSSLAAIDLSYNNFTGPIPPCLRNLELVYLRNNNLEGSIPDALCDGASLRTLDVSHNRLTGKLPRSFVNCSSLKFLSVINNRIEDTFPFWLKALPNLQVLTLRSNRFYGPISPPHQGPLGFPELRIFEISDNKFTGSLPPNYFVNWKASSRTMNQDGGLYMVYEEKLFDEGGYGYTDALDLQYKGLHMEQAKALTSYAAIDFSGNRLEGQIPESIGLLKALIAVNISNNAFTGHIPLSMANLENLESLDMSRNQLSGTIPNGLGSISFLAYINVSHNQLTGEIPQGTQITGQSKSSFEGNAGLCGLPLKESCFGTGAPPMYHQKQEDKEEEEEEEEEEEEVLNGRAVAIGYGSGLLLGLAIAQVIASYKRKKKNNASDGNPSDSTTLGMFHEKVSYEELHSATSRFSSTNLIGSGNFGNVFKGLLGPENKLVAVKVLNLLKHGATKSFMAECETFKGIRHRNLVKLITVCSSLDSEGNDFRALVYEFMPKGSLDMWLQLEDLERVNDHSRSLTPAEKLNIAIDVASALEYLHVHCHDPVAHCDIKPSNILLDDDLTAHVSDFGLAQLLYKYDRESFLNQFSSAGVRGTIGYAAPEYGMGGQPSIQGDVYSFGILLLEMFSGKKPTDESFAGDYNLHSYTKSILSGCTSSGGSNAIDEGLRLVLQVGIKCSEEYPRDRMRTDEAVRELISIRSKFFSSKTTITESPRDAPQSSPQEWMLNTDMHTMASDYKDHDGDYKDHDLDAAAADYKDDDDK | comparable responsiveness
2 | AtRLP23-AtSOBIR1-3×FLAG: AtRLP23 apoplastic and eJM domains, AtSOBIR1 TM and cytoplasmic domains, 3×FLAG; SEQ ID NO: 29, 30 (protein, Fusion protein) MSKALLHLHFLSLFLLCCVCHSSIFTLNFHFTGIVACRPHQIQAFTKFTNEFDTRGCNNSDTFNGVWCDNSTGAVAVLQLRKCLSGTLKSNSSLFGFHQLRYVDLQNNNLTSSSLPSGFGNLKRLEGLFLSSNGFLGQVPSSFSNLTMLAQLDLSYNKLTGSFPLVRGLRKLIVLDLSYNHFSGTLNPNSSLFELHQLRYLNLAFNNFSSSLPSKFGNLHRLENLILSSNGFSGQVPSTISNLTRLTKLYLDQNKLTSSFPLVQNLTNLYELDLSYNKFFGVIPSSLLTLPFLAHLALRENNLAGSVEVSNSSTSSRLEIMYLGSNHFEGQILEPISKLINLKHLDLSFLNTSYPIDLKLFSSLKSLRSLDLSGNSISSASLSSDSYIPLTLEMLTLRHCDINEFPNILKTLKELVYIDISNNRMKGKIPEWLWSLPLLQSVTLGNNYFTGFQGSAEILVNSSVLLLYLDSNNFEGALPDLPLSIKGFGVASNSFTSEIPLSICNRSSLAAIDLSYNNFTGPIPPCLRNLELVYLRNNNLEGSIPDALCDGASLRTLDVSHNRLTGKLPRSFVNCSSLKFLSVINNRIEDTFPFWLKALPNLQVLTLRSNRFYGPISPPHQGPLGFPELRIFEISDNKFTGSLPPNYFVNWKASSRTMNQDGGLYMVYEEKLFDEGGYGYTDALDLQYKGLHMEQAKALTSYAAIDFSGNRLEGQIPESIGLLKALIAVNISNNAFTGHIPLSMANLENLESLDMSRNQLSGTIPNGLGSISFLAYINVSHNQLTGEIPQGTQITGQSKSSFEGNAGLCGLPLKESCFGTGAPPMYHQKQEDKEEEEEEEEEEEEVLNGRVAAWILGFVVGAIGGTISGFVFSVLFKLIIQAIRGSEKPPGPSIFSPLIKKAEDLAFLENEEALASLEIIGRGGCGEVFKAELPGSNGKIIAVKKVIQPPKDADELTDEDSKFLNKKMRQIRSEINTVGHIRHRNLLPLLAHVSRPECHYLVYEYMEKGSLQDILTDVQAGNQELMWPARHKIALGIAAGLEYLHMDHNPRIIHRDLKPANVLLDDDMEARISDFGLAKAMPDAVTHITTSHVAGTVGYIAPEFYQTHKFTDKCDIYSFGVILGILVIGKLPSDEFFQHTDEMSLIKWMRNIITSENPSLAIDPKLMDQGFDEQMLLVLKIACYCTLDDPKQRPNSKDVRTMLSQIKHSDYKDHDGDYKDHDLDAAAADYKDDDDK | reduced responsiveness
3 | AtRLP23+TM-AtBAK1-3×FLAG: AtRLP23 apoplastic, eJM and TM domains, AtBAK1 cytoplasmic domain, 3×FLAG; SEQ ID NO: 37, 38 (protein, Fusion protein) MSKALLHLHFLSLFLLCCVCHSSIFTLNFHFTGIVACRPHQIQAFTKFTNEFDTRGCNNSDTFNGVWCDNSTGAVAVLQLRKCLSGTLKSNSSLFGFHQLRYVDLQNNNLTSSSLPSGFGNLKRLEGLFLSSNGFLGQVPSSFSNLTMLAQLDLSYNKLTGSFPLVRGLRKLIVLDLSYNHFSGTLNPNSSLFELHQLRYLNLAFNNFSSSLPSKFGNLHRLENLILSSNGFSGQVPSTISNLTRLTKLYLDQNKLTSSFPLVQNLTNLYELDLSYNKFFGVIPSSLLTLPFLAHLALRENNLAGSVEVSNSSTSSRLEIMYLGSNHFEGQILEPISKLINLKHLDLSFLNTSYPIDLKLFSSLKSLRSLDLSGNSISSASLSSDSYIPLTLEMLTLRHCDINEFPNILKTLKELVYIDISNNRMKGKIPEWLWSLPLLQSVTLGNNYFTGFQGSAEILVNSSVLLLYLDSNNFEGALPDLPLSIKGFGVASNSFTSEIPLSICNRSSLAAIDLSYNNFTGPIPPCLRNLELVYLRNNNLEGSIPDALCDGASLRTLDVSHNRLTGKLPRSFVNCSSLKFLSVINNRIEDTFPFWLKALPNLQVLTLRSNRFYGPISPPHQGPLGFPELRIFEISDNKFTGSLPPNYFVNWKASSRTMNQDGGLYMVYEEKLFDEGGYGYTDALDLQYKGLHMEQAKALTSYAAIDFSGNRLEGQIPESIGLLKALIAVNISNNAFTGHIPLSMANLENLESLDMSRNQLSGTIPNGLGSISFLAYINVSHNQLTGEIPQGTQITGQSKSSFEGNAGLCGLPLKESCFGTGAPPMYHQKQEDKEEEEEEEEEEEEVLNGRAVAIGYGSGLLLGLAIAQVIASYRRKKPQDHFFDVPAEEDPEVHLGQLKRFSLRELQVASDNFSNKNILGRGGFGKVYKGRLADGTLVAVKRLKEERTQGGELQFQTEVEMISMAVHRNLLRLRGFCMTPTERLLVYPYMANGSVASCLRERPESQPPLDWPKRQRIALGSARGLAYLHDHCDPKIIHRDVKAANILLDEEFEAVVGDFGLAKLMDYKDTHVTTAVRGTIGHIAPEYLSTGKSSEKTDVFGYGVMLLELITGQRAFDLARLANDDDVMLLDWVKGLLKEKKLEALVDVDLQGNYKDEEVEQLIQVALLCTQSSPMERPKMSEVVRMLEGDGLAERWEEWQKEEMFRQDFNYPTHHPAVSGWIIGDSTSQIENEYPSGPRSDYKDHDGDYKDHDLDAAAADYKDDDDK | reduced responsiveness
